# Measured values as given in the nanobody polyreactivity screen of Harvey et al. (2022).
# Assay: yeast display, Sf9 membrane polyspecificity reagent, FACS + sequencing; frameworks hold sequencing errors
# In short: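 Genes from sorted yeast were amplified by colony PCR, read by MiSeq 2 × 250 sequencing and filtered on CDR length. These cells carried a synthetic nanobody library in Saccharomyces cerevisiae BJ5465 and were sorted by FACS into low and high (top ~1%) gates on anti-HA and streptavidin fluorescence. Polyreactivity is labelled according to the gate of origin.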
row,Sequence,polyreactivity (PSR sort gate)
1,QVQLVESGGGVDQAGGSLRLSGAASGSTFHSYTMGWYRQAPGKERELVAAITRSGGSTYYADSGKGRFTISRETAKNTVYLQMNSQKPEDTAVYYCAVPYCRNSRLVDLAYHFYYWGQGTQVTVSS,high polyreactivity
2,QVQLVESGGGVGQAGGSLRLSCAASGYTFPDYAMGWYRQAPGKERELFAAIRSGGGTNYADSVKGRFTISRDNAKNTVYLLMNSLQPVDTAVYYSAKEWAGGLYDYWGQGTKVTVSS,low polyreactivity
3,QVQLVESGGGVVQAGGSLGLSCAASGRLFGYYAMGWYRQAPGKERELGAAINYSGGSTYYADSVKGRFTISRDNAKNTVYLQMNSLKPEDTAVYYCNAVRYTLLYYWGQGTQVTVSS,high polyreactivity
4,QVQLVESGGGVVQAGGSLRISCAASGRTFGVYAMGWYREAPGKERELVAAINRSGTRTYYADSVKGRFSISRDNPKNTVYLPMNSLKPEDTAVYYCAASWYPGSRNYDYWGQGTQVSVSS,high polyreactivity
5,QVQLVESGGGVVQAGGSLRLICAASGSTFHSYVMGWYRQAPWKERELVAAITSRGGSTNYADSVKGRFTISRDNAKNTVYLQLNSQKPEDTAVYCCAADGYLGWSYCRYDYWGQGTQVTVSS,low polyreactivity
6,QVQLVESGGGVVQAGGSLRLSCAACGSTFRSYAMGWYRQAPGTERELVAAISSGGRTYYADSVKGRFTITRDNAKNPVYLPMNSLKPEDTAVYYCAARLYAYRWYGYAFKYEYWGHGTQVTVSS,high polyreactivity
7,QVQLVESGGGVVQAGGSLRLSCAASGGIFRRNAMGWYRQAPGKERELVAAITRSGASTYDADSVKGRFTISRDNAKYTVYLQMNSLKPEDTAVYYCADAQLSAEYDYWGQGTQVTVTS,low polyreactivity
8,QVQLVESGGGVVQAGGSLRLSCAASGGTFGKYAMGWYRQAPGNEREFVAAISKSGGSTFYADSVKGRFTISRDNAKNTVYLQMNSLKPEDTAVYYCAVRWYYRGRSLYDYWGQGTQVTVSS,high polyreactivity
9,QVQLVESGGGVVQAGGSLRLSCAASGRIFGGYAMGWYRQAPGKERELVAAISGSGGRTDYADSVKGRFTISRDNAKNTVYLQMNSLKPDDTAVYYCNKGYVYGHEYWGQGTQVTVSS,high polyreactivity
10,QVQLVESGGGVVQAGGSLRLSCAASGRIFLTNALGWYRQAPGKVREVVADISRGGSTYADSVKGRFTISRDTAKNTVYLQMTSLKPEDTAVDYCAADEYSPGDSRTRYAYWGQGTQVPVSS,low polyreactivity
11,QVQLVESGGGVVQAGGSLRLSCAASGRIFRYYTMGWYRQAPGKERELVAAITSSGGSTYYADSVKGRFTISRDNAKNTVYLQMNSLKPEDTAVYYCATRSYVFAWEFNYWGQGSQVTVSS,high polyreactivity
12,QVQLVESGGGVVQAGGSLRLSCAASGRIFYKYAMGWYRQAPGKAREFVATISSSGGSTYYADSVKGRFTISRDNAKNTAYLQMNSLKPEDTAVYYCAARYGRVTREYWGQGTQVTVSS,high polyreactivity
13,QVQLVESGGGVVQAGGSLRLSCAASGRTFGSNAMGWYRQAPGKERELVAGITTSGGSTNYADSVKGRFTISRDNAKNTVYLQMNSLKPEETAVYFCAVANYGIGYPHYIFDYWGQGTQVTVSS,low polyreactivity
14,QVQLVESGGGVVQAGGSLRLSCAASGRTFRSYAMGWYRQAPGKERELVAAISWSGGSTYYADSVKGRFTISRDNAKNTVYLQMNSLKPEDTAVYYCAATVGQRKYQLGYWGQGTQVTVSS,high polyreactivity
15,QVQLVESGGGVVQAGGSLRLSCAASGSIFAGIAMGWYRQAPGKERELVADITSGDSTYYADSLKGRFTISRDNAKNTVYLQMNSLTPEDTAVYYCNNQLRVPQGAFFWFHGMDYWGQGTQVTVSS,low polyreactivity
16,QVQLVESGGGVVQAGGSLRLSCAASGSIFTYYAMGWYRQAPGKERELVAAISYGGGSTNYADSVKGRFTISRDNAKYTVYLQMNSLKPEDTAVYYCNRVLGVNYGYWGQGTQVTVSS,high polyreactivity
17,QVQLVESGGGVVQAGGSLRLSCAASGSNFDRNAMGWYRQAPGKERELVAAISRSGGSTNYADSVKGRFTISRDNAKNTFYLQMNSLKPEVTAVYYCAAVRTHWFGQGWAVYWFEYWGQGTQVTVSS,low polyreactivity
18,QVQLVESGGGVVQAGGSLRLSCAASGSTFLPYAMGWYRQAPGKERELVAAITWRTGSTYYADSVKGRFTSSRDNAQNTVYLQMNSLKPEDTAVYYCNAKQRGKFDYWGQGTQVTVSS,low polyreactivity
19,QVQLVESGGGVVQAGGSLRLSCAASGSTFSAYTMGWYRQAPGKERELVAAISRSGVSTYYADSVKGRFTISRDNAKNTVYLQMNSLKPEDTAVYYCAAPYFVSYQGYDYCGQGTQVTVSS,high polyreactivity
20,QVQLVESGGGVVQAGGSLRLSCAASGSTFYSYAMGWYRQAPGKERELVAAISSGGGRTYYADSVKGRFTISRDNAKNTVYLQMNSLKPEDTAVYYCAASYWYRDYYYWGQGTQVTVSS,high polyreactivity
21,QVQLVESGGGVVQAGGSLRLSCAASGSTLVVNGLGWYRQAPGKDRELVAAISWSGGTTYYADSVKGRFTISRDNAKNTVDLQMNSLKPEDTAVYYCAADSYTEVDYWGQGTQVTVSS,low polyreactivity
22,QVQLVESGGGVVQAGGSLRLSGAASGITFSVNAMGWYRPAPGKEREFVAAISSSGGSTYYADSVKGRFTISRDNAKNTVYLQMNSLKPEDTAVYYCAVDYYSYYYEDDYWGQGTQVTVSS,high polyreactivity
23,QVQLVESGGGVVQAGGSLRLSSAASGIIFKRYAMGWYRQAPGKEREFVAAISRSGVRTYYADSVKGRFTISRDNAKNTVFLQMNSLNPEDTAVYYCAAEFANYRDTGESVYWFYYWGQGTQVTVSS,high polyreactivity
24,QVQLVESGGGVVQAGGTLRLSCAASGSLFPYNVMGWYRQAPGKERELVAVITGSTGRTYYADSVKGRFTISRDNAKNTVYLQMNSLKPEDTAVYYCAKRSYWAPYDYWGQGTQVTVSS,high polyreactivity
25,QVQLVESGGGVVQAGRSLRISCAASGSTFRGYAMGWYRQAPGKDRELVATISGSDGTTYYADSVKGRFTISRDYAKNTVYLQMNCLNPEDTAVFYCDAGESFEMYYWGQGSQVTVSS,low polyreactivity
26,QVQLVESGGGVVQAGRSLRLSCAASGRLFVRNAMGWYRQAPGKDRELVAAITSVGDTYYADSVKGRFTISRDNAKNTVYLQMNSLKPVDTAVYYCAVYLWSGWGYPEYNYWGQGTQVTVSS,low polyreactivity
27,QVQLVESGGLLVQAGGSLRLRGAASGSTIPRNAMGWYRQAPGKERELVASITSDGGSTYYADSVKGRFTISRDNAQITVYLQMNSLNPEDTAVYYFNAYTRYGLFAYDYWGQGTQVTVSS,high polyreactivity
28,QVQLVESGGPIVQAGGSLRISCAASGRTYAYKTMGWSRQAPGKERELVAGINSSGGSTYYADSVKGRFTISRDNAKNTVYLQMNSLKPEDTAVYDCAADNSPRPYDSWGQGTQVTVSS,high polyreactivity
29,QVQLVESGGRLFQAGGSLRLSCAASGRSYRYYAMGGYTKAPGKERELFAAISSGTRTNYADSVKGRFTISRDNAKNTVYFQMNSLKPEDTAVYYCKADGYRGYYGRNKSKYDFWGQGTQVTVSS,high polyreactivity
30,QVQLVESGGRLLQAGGSLRLSCAASGYTIDPYDMGWYRQAPGKERELVASISWSGGDTYYADSVKGRFSISRDNAKNTVYLQMNRLKPEDPAVYYCAADPGYAANRTEWRDFDYWGQGTQVTVSS,low polyreactivity
